Assay results from patent US20240000834A1, “RAS MUTANT EPITOPE PEPTIDE AND T CELL RECEPTOR RECOGNIZING RAS MUTANT” (SHANGHAI GENBASE BIOTECHNOLOGY CO., LTD., priority 2020, published 2024).

Assays:
[1] = target: T1, RAS G12V mutant (KRAS G12V) peptide on HLA-DPB1*03:01 (human); test: Jurkat-NFAT-Luc + B13 LCL loaded with T15; vs wild-type B13.14.1; mTCRβ 33.90%; full-length, on cells
T1 peptide: TEYKLVVVGAVGV
Method: The TCR mutant (CDR3 region) lentiviral vector was transduced into Jurkat-NFAT-Luc cell line, and B13 LCL cells loaded with KRAS-G12V antigen (RAS G12V-T15 peptide, SEQ ID NO: 5) were used as antigen-presenting cells. 2×10⁴ TCR-T and 2×10⁴ antigen-loaded B13 LCL cells were co-cultured for 16-24 hours, and added with ONE Glo Luciferase to detect the expression of fluorescent signal, and the TCR Mut RLU/WT RLU (ratio of RLU signal value of TCR mutant to RLU signal value of wild-type B13.14.1 TCR) was calculated.

[2] = target: T1, RAS G12V mutant (KRAS G12V) peptide on …; test: activation reporter or marker
[3] = target: T1, RAS G12V mutant (KRAS G12V) peptide on …; test: Jurkat-NFAT-Luc + B13 LCL loaded with T15; vs wild-type B13.14.1; mTCRβ 94.90%; full-length, on cells
Method: (§1) The TCR mutant (MHC-II binding region) lentiviral vector was transduced into the Jurkat-NFAT-Luc cell line, and B13 LCL cells loaded with KRAS-G12V antigen (RAS G12V-T15 peptide, SEQ ID NO: 5) were used as the antigen-presenting cells. 2×10⁴ TCR-T and 2×10⁴ antigen-loaded B13 LCL cells were co-cultured for 16-24 hours, the fluorescence signal expression was detected by adding ONE Glo Luciferase, and TCR Mut RLU/WT RLU (ratio of RLU signal value of TCR mutant to RLU signal value of wild-type B13.14.1TCR) was calculated.

[4] = target: T1, RAS G12V mutant (KRAS G12V) peptide on …; test: Jurkat-NFAT-Luc; B13 LCL + G12V peptide, 10 µg/ml, 10-fold dilutions, 5 conc.; Emax relative to WT 104%; full-length, on cells
Method: In the above table, those with a higher ratio of TCR Mut RLU/WT RLU were underlined, which were preferred TCR mutants. The Emax and EC50 (Functional Avidity) of these TCR mutants in recognition of the KRAS-G12V antigen peptide were further determined. B13 LCL cells were loaded with different concentrations of G12V antigen peptide (10 μg/ml, 10-fold dilution, 5 concentrations), and co-incubated with Jurkat-NFAT-Luc cells expressing the TCR mutants for 16-24 hours, the fluorescence signal expression was detected by adding ONE Glo Luciferase, and the results were shown in FIG. 8 and the table below.

[5] = target: T1, RAS G12V mutant (KRAS G12V) peptide on …; test: Jurkat-NFAT-Luc + B13 LCL loaded with T15; vs wild-type B13.14.1; mTCRβ 95.50%; full-length, on cells
Method: as §1

[6] = target: T1, RAS G12V mutant (KRAS G12V) peptide on …; test: Jurkat-NFAT-Luc; SW620-DPB + G12V peptide, 10 µg/ml, 10-fold dilutions, 5 conc.; Emax relative to WT 95%; full-length, on cells
Method: In the above table, those with TCR Mut RLU/WT RLU ratio ≥80% were underlined, which were the preferred TCR mutants. The Emax and EC50 (Functional Avidity) of the TCR mutants to recognize the KRAS-G12V antigen peptide were further determined. SW620-DPB cells (SW620 expressing HLA-DPB1*03:01) were loaded with different concentrations of G12V antigen peptide (10 μg/ml, 10-fold dilution, 5 concentrations), and co-incubated with Jurkat-NFAT-Luc cells expressing the TCR mutants for 16-24 hours, and the fluorescence signal expression was detected by adding ONE Glo Luciferase.

B1: B13.14.1 TCR mutant β97Q-W (TCR, V domains shown)
Valpha: AQSVAQPEDQVNVAEGNPLTVKCTYSVSGNPYLFWYVQYPNRGLQFLLKYITGDNLVKGSYGFEAEFNKSQTSFHLKKPSALVSDSALYFCAVRDGRGGGNKLTFGTGTQLKVEL
Vbeta: DGGITQSPKYLFRKEGQNVTLSCEQNLNHDAMYWYRQDPGQGLRLIYYSQIVNDFQKGDIAEGYSVSREKKESFPLTVTSAQKNPTAFYLCASSPGWRDNSPLHFGNGTRLTVT
TCR Mut RLU/WT RLU [1]: 3.4%

B2: B13.14.1 TCR mutant α32Y-N (TCR, V domains shown)
Valpha: AQSVAQPEDQVNVAEGNPLTVKCTYSVSGNPNLFWYVQYPNRGLQFLLKYITGDNLVKGSYGFEAEFNKSQTSFHLKKPSALVSDSALYFCAVRDGRGGGNKLTFGTGTQLKVEL
Vbeta: DGGITQSPKYLFRKEGQNVTLSCEQNLNHDAMYWYRQDPGQGLRLIYYSQIVNDFQKGDIAEGYSVSREKKESFPLTVTSAQKNPTAFYLCASSPGQRDNSPLHFGNGTRLTVT
binding result [2]: no recognition | TCR Mut RLU/WT RLU [3]: 4.17%

B3: B13.14.1 TCR mutant α98G-W (TCR, V domains shown)
Valpha: AQSVAQPEDQVNVAEGNPLTVKCTYSVSGNPYLFWYVQYPNRGLQFLLKYITGDNLVKGSYGFEAEFNKSQTSFHLKKPSALVSDSALYFCAVRDGRWGGNKLTFGTGTQLKVEL
Vbeta: DGGITQSPKYLFRKEGQNVTLSCEQNLNHDAMYWYRQDPGQGLRLIYYSQIVNDFQKGDIAEGYSVSREKKESFPLTVTSAQKNPTAFYLCASSPGQRDNSPLHFGNGTRLTVT
EC50 of peptide [4]: 0.064 µg/mL

B4: B13.14.1 TCR mutant α49K-T (TCR, V domains shown)
Valpha: AQSVAQPEDQVNVAEGNPLTVKCTYSVSGNPYLFWYVQYPNRGLQFLLTYITGDNLVKGSYGFEAEFNKSQTSFHLKKPSALVSDSALYFCAVRDGRGGGNKLTFGTGTQLKVEL
Vbeta: DGGITQSPKYLFRKEGQNVTLSCEQNLNHDAMYWYRQDPGQGLRLIYYSQIVNDFQKGDIAEGYSVSREKKESFPLTVTSAQKNPTAFYLCASSPGQRDNSPLHFGNGTRLTVT
TCR Mut RLU/WT RLU [5]: 63.6%

B5: B13.14.1 TCR mutant α96G-D (TCR, V domains shown)
Valpha: AQSVAQPEDQVNVAEGNPLTVKCTYSVSGNPYLFWYVQYPNRGLQFLLKYITGDNLVKGSYGFEAEFNKSQTSFHLKKPSALVSDSALYFCAVRDDRGGGNKLTFGTGTQLKVEL
Vbeta: DGGITQSPKYLFRKEGQNVTLSCEQNLNHDAMYWYRQDPGQGLRLIYYSQIVNDFQKGDIAEGYSVSREKKESFPLTVTSAQKNPTAFYLCASSPGQRDNSPLHFGNGTRLTVT
EC50 of peptide [4]: 0.212 µg/mL

B6: B13.14.1 TCR mutant α30N-H (TCR, V domains shown)
Valpha: AQSVAQPEDQVNVAEGNPLTVKCTYSVSGHPYLFWYVQYPNRGLQFLLKYITGDNLVKGSYGFEAEFNKSQTSFHLKKPSALVSDSALYFCAVRDGRGGGNKLTFGTGTQLKVEL
Vbeta: DGGITQSPKYLFRKEGQNVTLSCEQNLNHDAMYWYRQDPGQGLRLIYYSQIVNDFQKGDIAEGYSVSREKKESFPLTVTSAQKNPTAFYLCASSPGQRDNSPLHFGNGTRLTVT
TCR Mut RLU/WT RLU [5]: 65.4%

B7: B13.14.1 TCR mutant α51I-E (TCR, V domains shown)
Valpha: AQSVAQPEDQVNVAEGNPLTVKCTYSVSGNPYLFWYVQYPNRGLQFLLKYETGDNLVKGSYGFEAEFNKSQTSFHLKKPSALVSDSALYFCAVRDGRGGGNKLTFGTGTQLKVEL
Vbeta: DGGITQSPKYLFRKEGQNVTLSCEQNLNHDAMYWYRQDPGQGLRLIYYSQIVNDFQKGDIAEGYSVSREKKESFPLTVTSAQKNPTAFYLCASSPGQRDNSPLHFGNGTRLTVT
EC50 of peptide [6]: 0.927 µg/mL

B8: B13.14.1 TCR mutant α49K-L (TCR, V domains shown)
Valpha: AQSVAQPEDQVNVAEGNPLTVKCTYSVSGNPYLFWYVQYPNRGLQFLLLYITGDNLVKGSYGFEAEFNKSQTSFHLKKPSALVSDSALYFCAVRDGRGGGNKLTFGTGTQLKVEL
Vbeta: DGGITQSPKYLFRKEGQNVTLSCEQNLNHDAMYWYRQDPGQGLRLIYYSQIVNDFQKGDIAEGYSVSREKKESFPLTVTSAQKNPTAFYLCASSPGQRDNSPLHFGNGTRLTVT
TCR Mut RLU/WT RLU [5]: 66%

B9: B13.14.1 TCR mutant β99D-Q (TCR, V domains shown)
Valpha: AQSVAQPEDQVNVAEGNPLTVKCTYSVSGNPYLFWYVQYPNRGLQFLLKYITGDNLVKGSYGFEAEFNKSQTSFHLKKPSALVSDSALYFCAVRDGRGGGNKLTFGTGTQLKVEL
Vbeta: DGGITQSPKYLFRKEGQNVTLSCEQNLNHDAMYWYRQDPGQGLRLIYYSQIVNDFQKGDIAEGYSVSREKKESFPLTVTSAQKNPTAFYLCASSPGQRQNSPLHFGNGTRLTVT
TCR Mut RLU/WT RLU [1]: 6.8%

B10: B13.14.1 TCR mutant α30N-Y (TCR, V domains shown)
Valpha: AQSVAQPEDQVNVAEGNPLTVKCTYSVSGYPYLFWYVQYPNRGLQFLLKYITGDNLVKGSYGFEAEFNKSQTSFHLKKPSALVSDSALYFCAVRDGRGGGNKLTFGTGTQLKVEL
Vbeta: DGGITQSPKYLFRKEGQNVTLSCEQNLNHDAMYWYRQDPGQGLRLIYYSQIVNDFQKGDIAEGYSVSREKKESFPLTVTSAQKNPTAFYLCASSPGQRDNSPLHFGNGTRLTVT
TCR Mut RLU/WT RLU [3]: 73.5%

B11: B13.14.1 TCR mutant α52T-I (TCR, V domains shown)
Valpha: AQSVAQPEDQVNVAEGNPLTVKCTYSVSGNPYLFWYVQYPNRGLQFLLKYIIGDNLVKGSYGFEAEFNKSQTSFHLKKPSALVSDSALYFCAVRDGRGGGNKLTFGTGTQLKVEL
Vbeta: DGGITQSPKYLFRKEGQNVTLSCEQNLNHDAMYWYRQDPGQGLRLIYYSQIVNDFQKGDIAEGYSVSREKKESFPLTVTSAQKNPTAFYLCASSPGQRDNSPLHFGNGTRLTVT
EC50 of peptide [6]: 1.35 µg/mL
